Legend:
[1] = In vitro chromophore titration with DFHBI (fluorescence, single-binding site isotherm fit)
Procedure: Fluorescence endpoints were measured on a Synergy Neo2 hybrid multi-mode reader (BioTek) in flat bottom, black polystyrene, non-binding surface 96-well microplates (Corning 3650). In measuring chromophore-binding affinities (Fig. 1d, e), mFAP2, mFAP2a, and mFAP2b, and mFAP10 were produced by large-scale protein purification and SEC purification. Proteins were aliquoted in eight technical replicates in 200 μL final volumes to 20.0 nM final concentration in ten serial dilutions ( 10 dilution factor) of DFHBI starting from 31.6 μM DFHBI or 31.6 μM DFHBI-1T final concentrations, including an eleventh condition without chromophore. Fluorescence was excited at λex = 468 nm and fluorescence emission measured at λem = 530 nm. Background fluorescence endpoints of wells with identical chromophore concentrations but purified protein replaced with an identical volume of high-salt Tev cleavage buffer were measured, and fluorescence endpoints subtracted from those measured with protein. Background-subtracted data were averaged and the means normalized from 0 to 1 and fit to a single-binding site isotherm function using non-linear least squares fitting to obtain a fitted Kd value (Table 1), and the fit scaled to the maximum mean value (Fig. 1d, e).

[2] = Fluorescence intensity assays of mFAP variants; assay type: biochemical; conditions: neutral pH, DFHBI
Procedure: To measure fluorescence intensities of the phenolate form of chromophores, fluorescence was measured on a Synergy Neo2 hybrid multi-mode reader (BioTek) in flat bottom, black polystyrene, non-binding surface 96-well microplates (Corning 3650). Fluorescence intensity was measured in triplicate by exciting at λex = 484 nm and measuring fluorescence emission at λem = 505 nm (or λem = 511 nm for clones harboring the W27 mutation) (Supplementary Fig. 1g, h). The W27 mutation redshifts the peak emission wavelength from λem = ~505 nm to λem = ~511 nm, presumably due to the W27 indole ring donating a hydrogen bond to the imidazolinone moiety of the deprotonated state of DFHBI, which stabilizes the chromophore conjugated π–electron system in the excited state causing the redshift in emission. Fifteen microliters of small-scale purified protein[49] was combined with 185 μL of Na2HPO4-citrate (pH 7.36) buffer supplemented with 150 mM NaCl and 108 nM DFHBI for a final concentration of 100 nM DFHBI. In measuring the excitation spectra from λem = 525 nm of each clone in triplicate (Supplementary Fig. 1i), 30.0 μL of large-scale purified protein[49] was combined with 170 μL of 25.0 mM Tris (pH 8.00) supplemented with 100 mM NaCl and 914 nM DFHBI for a final concentration of 7.77 μM protein and 777 nM DFHBI. In measuring the fluorescence intensity at λex = 484 nm and λem = 509 nm of each clone in triplicate (Supplementary Fig. 1j), 30.0 μL of large-scale purified protein[49] was combined with 170 μL of 25.0 mM Tris (pH 8.00) supplemented with 100 mM NaCl and 653 nM DFHBI for a final concentration of 5.55 μM protein and 555 nM DFHBI. In measuring fluorescence intensity at λex = 468 nm and λem = 530 nm of each clone in technical triplicate (Supplementary Fig. 1k), 24.0 μL of 35.4 µM large-scale purified protein[49] was combined with 1.00 μL of 1.25 µM DFHBI or 1.00 μL of 1.25 µM DFHBI-1T (Lucerna) (from […] chromophore stock solutions dissolved in 0.5% DMSO and 99.5% high-salt Tev cleavage buffer [25.0 mM Tris, 100 mM NaCl, pH 8.00]) for final concentrations of 34.0 μM protein and 50.0 nM chromophore. The mFAP9–DFHBI complex had ~1.1-fold the fluorescence intensity of the mFAP10–DFHBI complex, and the mFAP9–DFHBI-1T complex had ~0.75-fold the fluorescence intensity of the mFAP10–DFHBI-1T complex (Supplementary Fig. 1k). In collecting fluorescence emission spectra by exciting fluorescence at λex = 484 nm and collecting fluorescence emission at λem = 495–650 nm (Supplementary Fig. 6b), and in measuring fluorescence endpoints in techincal triplicate at unique peak excitation and emission wavelengths (Supplementary Fig. 6c), 195 μL of large-scale purified protein[49] was combined with 5.00 μL of 25 mM Tris (pH 8.00) supplemented with 100 mM NaCl and 40.0 μM DFHBI for a final concentration of 10.0 μM protein and 1.00 μM DFHBI.
In measuring fluorescence intensity of small-scale purified proteins[49] (Supplementary Table 1), wells were excited at λex = 488 nm for DFHBI and DFHBI-1T and λex = 505 nm for DFHO, and fluorescence emission measured at λem = 510 nm for DFHBI and DFHBI-1T and λem = 545 nm for DFHO. […]

B1: mFAP2b: mFAP2.5 with V67I, "b" for bright (protein)
chain: SRAAQLLPGTWQVTMTNEDGQTSQGQWHFQPRSPYTMDIVAQGTISDGRPIVGYGKATVKTPDTLDIDITYPSLGNIKAQGQITMDSPTQFKWDATTKGENDFHGRLTGTLQRQE
- higher affinity for DFHBI than DFHBI-1T [1]: ~ 6.1 fold
- weaker affinity for DFHBI than the initial mFAP2 design [1]: ~ 10 fold
- brighter than mFAP2.4 [2]: ~ 1.3 fold
- brighter than mFAP2.5 [2]: ~ 1.2 fold

Reference: PMC7870846, “Incorporation of sensing modalities into de novo designed fluorescence-activating proteins” (Nature Communications, 2021)
